# Measured values as given in the supplement of paper PMC7125110.
# ± gives the standard error. For some assays here: Variants at the floor of the assay were thinned out.
# B1: glmS ribozyme (parent)
# chain: AUAAAAGCGCCAGAACUACAGAAAUGUAGUUGACGAGGAGGAGGUUUAUCGAAUUUUCGGCGGAUGCCUCCAAA
# How the values were obtained:
# Conditions in all cases: with glucosamine-6-phosphate
# [1] = variants of: B1; assay: kcat; higher = faster cleavage; RNA array
# Method in brief: (§1)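 Tiles of sequenced MiSeq chips were imaged over ~14 h at 37 °C. On them, barcoded ribozyme variants had been transcribed in situ by E. coli RNA polymerase and were tracked via a hybridised Cy3 probe while glucosamine-6-phosphate (40 μM to 10 mM) in HEPES/KCl/Mg(OAc)2 buffer flowed in. Per-tile medians, normalised to baseline and to non-cleaving reference variants, were fit to one- or two-exponential decays for kobs, and weighted Michaelis–Menten fits gave kcat and KM.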
# [2] = variants of: B1; assay: KM; higher = weaker cofactor use; RNA array
# Method in brief: as §1
# [3] = variants of: B1; assay: self-cleavage kobs at 10000 uM GlcN6P; higher = faster cleavage; RNA array
# Method in brief: as §1
# [4] = variants of: B1; assay: self-cleavage kobs at 40 uM GlcN6P; higher = faster cleavage; RNA array
# Method in brief: as §1
# [5] = variants of: B1; assay: self-cleavage kobs at 160 uM GlcN6P; higher = faster cleavage; RNA array
# Method in brief: as §1
# [6] = variants of: B1; assay: self-cleavage kobs at 640 uM GlcN6P; higher = faster cleavage; RNA array
# Method in brief: as §1
# [7] = variants of: B1; assay: self-cleavage kobs at 2500 uM GlcN6P; higher = faster cleavage; RNA array
# Method in brief: as §1
Variant,kcat [1] [s⁻¹],KM [2] [µM],self-cleavage kobs at 10000 uM GlcN6P [3] [s⁻¹],self-cleavage kobs at 40 uM GlcN6P [4] [s⁻¹],self-cleavage kobs at 160 uM GlcN6P [5] [s⁻¹],self-cleavage kobs at 640 uM GlcN6P [6] [s⁻¹],self-cleavage kobs at 2500 uM GlcN6P [7] [s⁻¹]
G29U A52U,0.000123 ± 1.2e-05,4620 ± 1400,8.41e-05 ± 1e-05,,,,
U30G U54C,0.00885 ± 0.00078,2170 ± 270,0.00714 ± 0.001,0.000148 ± 2.5e-05,0.000617 ± 0.00011,0.00235 ± 0.00041,0.00471 ± 0.0008
G29C U31C,0.000387 ± 3.9e-05,3280 ± 690,0.000284 ± 4.2e-05,,,5.78e-05 ± 1.8e-05,0.000184 ± 3.4e-05
U30A U45A,0.00916 ± 0.0024,1290 ± 500,0.0107 ± 0.0021,0.000369 ± 6.4e-05,0.000872 ± 0.00018,0.00285 ± 0.00065,0.00515 ± 0.001
G29C U55C,0.00285 ± 0.001,3510 ± 1600,0.00205 ± 0.00062,5.28e-05 ± 1.7e-05,0.00011 ± 1.7e-05,0.000561 ± 0.0001,0.00116 ± 0.00023
U30C G32C,0.000399 ± 5.8e-05,3500 ± 1100,0.0003 ± 3.4e-05,,,5.99e-05 ± 1.9e-05,0.000157 ± 3e-05
U30C G32U,0.000492 ± 0.00011,3230 ± 1300,0.000403 ± 5.7e-05,,,9.97e-05 ± 1.7e-05,0.000183 ± 2.9e-05
G29C G32U A33U C50G U56G G66C U69C,1.64e-05 ± 5.6e-06,,,,,,
U30A U46A,0.00042 ± 5.2e-05,,0.000363 ± 5.1e-05,,,,0.000372 ± 0.0001
U30A U46G,0.000804 ± 0.00016,,0.000702 ± 8.5e-05,4.09e-05 ± 1.5e-05,,,0.000638 ± 0.00022
U30A U46C,0.000377 ± 6.9e-05,1730 ± 750,0.000332 ± 7e-05,,,0.000117 ± 3.5e-05,
G29C C70A,4.11e-05 ± 9.8e-06,,,,2.35e-05 ± 1.1e-05,5.19e-05 ± 9.6e-06,4.33e-05 ± 9.8e-06
U30G C58G A64C C67G C71G,4.36e-05 ± 1.6e-05,,,,5.89e-05 ± 2e-05,,
U31A C67U,0.00291 ± 0.0011,,0.00427 ± 0.00063,0.000116 ± 1.4e-05,0.000324 ± 8.8e-05,0.00143 ± 0.00019,0.00135 ± 0.00029
G29C U54G,0.000894 ± 0.00025,,0.000918 ± 0.00014,6e-05 ± 1.7e-05,,0.000289 ± 6.5e-05,0.00051 ± 0.00013
G29U A48G,1.1e-05 ± 1.6e-06,,,,,,
G29U A48U,4.34e-05 ± 5.3e-06,,3.9e-05 ± 9.4e-06,,,,4.72e-05 ± 1.3e-05
U31A G32U,0.00113 ± 0.00055,,0.0006 ± 0.00016,,4.59e-05 ± 2e-05,6.96e-05 ± 1.7e-05,0.000256 ± 4.4e-05
U31A G32A,0.00184 ± 0.00083,,0.0014 ± 0.00017,,6.66e-05 ± 1.2e-05,0.000222 ± 3.2e-05,0.000381 ± 7.7e-05

Variant,kcat [1] [s⁻¹],KM [2] [µM],self-cleavage kobs at 10000 uM GlcN6P [3] [s⁻¹],self-cleavage kobs at 40 uM GlcN6P [4] [s⁻¹],self-cleavage kobs at 160 uM GlcN6P [5] [s⁻¹],self-cleavage kobs at 640 uM GlcN6P [6] [s⁻¹],self-cleavage kobs at 2500 uM GlcN6P [7] [s⁻¹]
G29A U55G,0.00132 ± 0.00029,2980 ± 960,0.000954 ± 0.00021,,5.56e-05 ± 1.3e-05,0.000305 ± 6.3e-05,0.000622 ± 0.00011
U30A A42U,1.63e-05 ± 1.2e-07,588 ± 46,1.54e-05 ± 7.6e-06,,< 1e-05,,
U30C C58G,2e-05 ± 1.6e-06,,,,,< 1e-05,
U30C C58U,3.26e-05 ± 1.4e-05,,,,,< 1e-05,
G29C G38A,< 1e-05,,< 1e-05,< 1e-05,,,
G29C U65G,0.00083 ± 0.00013,4400 ± 1000,0.000591 ± 0.00015,,,0.000115 ± 2.7e-05,0.000279 ± 7.3e-05
G29U G59U,< 1e-05,,,,< 1e-05,,
G29U G59A,1.03e-05 ± 3.2e-06,,,< 1e-05,,,
U30G G60A,1.25e-05 ± 1.8e-06,,,< 1e-05,< 1e-05,,
U30G A39C,0.00157 ± 0.00013,2010 ± 270,0.00139 ± 0.00011,3.28e-05 ± 5.7e-06,0.000114 ± 1.6e-05,0.000396 ± 3.6e-05,0.000787 ± 7.3e-05
U30G U31A,0.0147 ± 0.001,914 ± 110,0.0137 ± 0.0031,0.000631 ± 0.0002,,,
G29U U65C,6.8e-05 ± 1.9e-05,,5.46e-05 ± 1.2e-05,,,,6.54e-05 ± 1.3e-05
U30G A33C,4.15e-05 ± 6e-07,2230 ± 140,3.4e-05 ± 8.1e-06,,,,
U30G G43U,1.16e-05 ± 2.3e-06,,,,< 1e-05,< 1e-05,
G29U A53G,0.00448 ± 0.0019,,0.00417 ± 0.00059,0.000165 ± 2.5e-05,0.000262 ± 5.4e-05,0.000805 ± 0.00012,0.0021 ± 0.00029
G29U C58U C68U,3.99e-05 ± 1.3e-05,,,,,,5.55e-05 ± 2.2e-05
U30C C67G C68A,1.14e-05 ± 4e-06,,< 1e-05,< 1e-05,,,
U30G U46G,0.00267 ± 0.0006,3990 ± 1200,0.00181 ± 0.00038,4.16e-05 ± 1.4e-05,0.000105 ± 2.3e-05,0.000333 ± 4.9e-05,0.00112 ± 0.00015
